Patent publication US20150344540A1, “NOVEL GLP-1 RECEPTOR AGONISTS WITH CHOLESTEROL EFFLUX ACTIVITY” (NOVO NORDISK A/S, priority 2012, published 2015)
Where no end group is shown, it is not given here. [ ]: non-standard residue; d: D form. Aib = CC(C)(N)C(=O)O

biological target: human GLP-1 receptor (human, UniProt P43220); assay: cell-based or functional assay

Binder	CRE luciferase EC50, 0% HSA [pM]	CRE luciferase EC50, 1% HSA [pM]
HAEGTFTSDVSSYLEGQAAKEFIAWLVEKVHEFL-NH2 [[Glu34,Lys35,Val36,His37]-GLP-1-(7-37)-peptidyl-Glu-Phe-Leu amide]	107	30
H[Aib]EGTFTSDVSSYLEGEAVKEFIAWLVG[Aib]KEFL-NH2 (N-terminus assumed; SMILES CC[C@H](C)[C@H](NC(=O)[C@H](Cc1ccccc1)NC(=O)[C@H](CCC(=O)O)NC(=O)[C@H](CCCCN)NC(=O)[C@@H](NC(=O)[C@H](C)NC(=O)[C@H](CCC(=O)O)NC(=O)CNC(=O)[C@H](CCC(=O)O)NC(=O)[C@H](CC(C)C)NC(=O)[C@H](Cc1ccc(O)cc1)NC(=O)[C@H](CO)NC(=O)[C@H](CO)NC(=O)[C@@H](NC(=O)[C@H](CC(=O)O)NC(=O)[C@H](CO)NC(=O)[C@@H](NC(=O)[C@H](Cc1ccccc1)NC(=O)[C@@H](NC(=O)CNC(=O)[C@H](CCC(=O)O)NC(=O)C(C)(C)NC(=O)[C@@H](N)Cc1c[nH]cn1)[C@@H](C)O)[C@@H](C)O)C(C)C)C(C)C)C(=O)N[C@@H](C)C(=O)N[C@@H](Cc1c[nH]c2ccccc12)C(=O)N[C@@H](CC(C)C)C(=O)N[C@H](C(=O)NCC(=O)NC(C)(C)C(=O)N[C@@H](CCCCN)C(=O)N[C@@H](CCC(=O)O)C(=O)N[C@@H](Cc1ccccc1)C(=O)N[C@@H](CC(C)C)C(N)=O)C(C)C) [[Aib8,Glu23,Val25,Aib36,Lys37]-des-Lys34-GLP-1-(7-37)-peptidyl-Glu-Phe-Leu amide]	10	4
HGEGTFTSDVSSYLEEEAVKEFIAWLVEKVKEF-NH2 [[Gly8,Glu22,Glu23,Val25,Glu34,Lys35,Val36,Lys37]-GLP-1-(7-37)-peptidyl-Glu-Phe amide]	104	27
HAEGTFTSDVSSYLEGQAAKEFIAWLVEKVKEFY-NH2 [[Glu34,Lys35,Val36,Lys37]-GLP-1-(7-37)-peptidyl-Glu-Phe-Tyr amide]	37	14
H[Aib]EGTFTSDVSSYLEGEAVKEFIAWLVEKVKEVL-NH2 (N-terminus assumed; SMILES CC[C@H](C)[C@H](NC(=O)[C@H](Cc1ccccc1)NC(=O)[C@H](CCC(=O)O)NC(=O)[C@H](CCCCN)NC(=O)[C@@H](NC(=O)[C@H](C)NC(=O)[C@H](CCC(=O)O)NC(=O)CNC(=O)[C@H](CCC(=O)O)NC(=O)[C@H](CC(C)C)NC(=O)[C@H](Cc1ccc(O)cc1)NC(=O)[C@H](CO)NC(=O)[C@H](CO)NC(=O)[C@@H](NC(=O)[C@H](CC(=O)O)NC(=O)[C@H](CO)NC(=O)[C@@H](NC(=O)[C@H](Cc1ccccc1)NC(=O)[C@@H](NC(=O)CNC(=O)[C@H](CCC(=O)O)NC(=O)C(C)(C)NC(=O)[C@@H](N)Cc1c[nH]cn1)[C@@H](C)O)[C@@H](C)O)C(C)C)C(C)C)C(=O)N[C@@H](C)C(=O)N[C@@H](Cc1c[nH]c2ccccc12)C(=O)N[C@@H](CC(C)C)C(=O)N[C@H](C(=O)N[C@@H](CCC(=O)O)C(=O)N[C@@H](CCCCN)C(=O)N[C@H](C(=O)N[C@@H](CCCCN)C(=O)N[C@@H](CCC(=O)O)C(=O)N[C@H](C(=O)N[C@@H](CC(C)C)C(N)=O)C(C)C)C(C)C)C(C)C) [[Aib8,Glu23,Val25,Glu34,Lys35,Val36,Lys37]-GLP-1-(7-37)-peptidyl-Glu-Val-Leu amide]	198	65
HAEGTFTSDVSSYLEEEAVKEFIAWLVEKVKEF-NH2 [[Glu22,Glu23,Val25,Glu34,Lys35,Val36,Lys37]-GLP-1-(7-37)-peptidyl-Glu-Phe amide]	20	10
HAEGTFTSDVSSYLEGQAAKEFIAWLVEHVKEFL-NH2 [[Glu34,His35,Val36,Lys37]-GLP-1-(7-37)-peptidyl-Glu-Phe-Leu amide]	103	24
HAEGTFTSDVSSYLEGEAVKEFIAWLVEKVKEFLEK [[Glu23,Val25,Glu34,Lys35,Val36,Lys37]-GLP-1-(7-37)-peptidyl-Glu-Phe-Leu-Glu-Lys]	98	31
HAEGTFTSDVSSYLEGQAAKEFIAWLVEKVKEFLEK [[Glu34,Lys35,Val36,Lys37]-GLP-1-(7-37)-peptidyl-Glu-Phe-Leu-Glu-Lys]	30	11
HAEGTFTSDVSSYLEGQAAKEFIAWLVEGVKEFLEK [[Glu34,Val36,Lys37]-GLP-1-(7-37)-peptidyl-Glu-Phe-Leu-Glu-Lys]	85	23
HAEGTFTSDVSSYLEGEAVREFIAWLVHRVREFLEK [[Glu23,Val25,Arg26,His34,Arg35,Val36,Arg37]-GLP-1-(7-37)-peptidyl-Glu-Phe-Leu-Glu-Lys]	39	14
HAEGTFTSDVSSYLEGQAAKEFIAWLVEKVKEFLER [[Glu34,Lys35,Val36,Lys37]-GLP-1-(7-37)-peptidyl-Glu-Phe-Leu-Glu-Arg]	34	11
HAEGTFTSDVSSYLEGQAAKEFIAWLVEKVKEFLDK [[Glu34,Lys35,Val36,Lys37]-GLP-1-(7-37)-peptidyl-Glu-Phe-Leu-Asp-Lys]	45	12
HAEGTFTSDVSSYLEGQAAKEFIAWLVEKVKEF-NH2 [[Glu34,Lys35,Val36,Lys37]-GLP-1-(7-37)-peptidyl-Glu-Phe amide]	16	5
HGEGTFTSDVSSYLEEEAVKEFIAWLVEKVKEFL-NH2 [[Gly8,Glu22,Glu23,Val25,Glu34,Lys35,Val36,Lys37]-GLP-1-(7-37)-peptidyl-Glu-Phe-Leu amide]	974	302
H[Aib]EGTFTSDVSSYLEEEAVKEFIAWLVEKVKEFL-NH2 (N-terminus assumed; SMILES CC[C@H](C)[C@H](NC(=O)[C@H](Cc1ccccc1)NC(=O)[C@H](CCC(=O)O)NC(=O)[C@H](CCCCN)NC(=O)[C@@H](NC(=O)[C@H](C)NC(=O)[C@H](CCC(=O)O)NC(=O)[C@H](CCC(=O)O)NC(=O)[C@H](CCC(=O)O)NC(=O)[C@H](CC(C)C)NC(=O)[C@H](Cc1ccc(O)cc1)NC(=O)[C@H](CO)NC(=O)[C@H](CO)NC(=O)[C@@H](NC(=O)[C@H](CC(=O)O)NC(=O)[C@H](CO)NC(=O)[C@@H](NC(=O)[C@H](Cc1ccccc1)NC(=O)[C@@H](NC(=O)CNC(=O)[C@H](CCC(=O)O)NC(=O)C(C)(C)NC(=O)[C@@H](N)Cc1c[nH]cn1)[C@@H](C)O)[C@@H](C)O)C(C)C)C(C)C)C(=O)N[C@@H](C)C(=O)N[C@@H](Cc1c[nH]c2ccccc12)C(=O)N[C@@H](CC(C)C)C(=O)N[C@H](C(=O)N[C@@H](CCC(=O)O)C(=O)N[C@@H](CCCCN)C(=O)N[C@H](C(=O)N[C@@H](CCCCN)C(=O)N[C@@H](CCC(=O)O)C(=O)N[C@@H](Cc1ccccc1)C(=O)N[C@@H](CC(C)C)C(N)=O)C(C)C)C(C)C) [[Aib8,Glu22,Glu23,Val25,Glu34,Lys35,Val36,Lys37]-GLP-1-(7-37)-peptidyl-Glu-Phe-Leu amide]	116	34
H[Aib]EGTFTSDVSSYLEGEAVKEFIAWLVEKVKEFF-NH2 (N-terminus assumed; SMILES CC[C@H](C)[C@H](NC(=O)[C@H](Cc1ccccc1)NC(=O)[C@H](CCC(=O)O)NC(=O)[C@H](CCCCN)NC(=O)[C@@H](NC(=O)[C@H](C)NC(=O)[C@H](CCC(=O)O)NC(=O)CNC(=O)[C@H](CCC(=O)O)NC(=O)[C@H](CC(C)C)NC(=O)[C@H](Cc1ccc(O)cc1)NC(=O)[C@H](CO)NC(=O)[C@H](CO)NC(=O)[C@@H](NC(=O)[C@H](CC(=O)O)NC(=O)[C@H](CO)NC(=O)[C@@H](NC(=O)[C@H](Cc1ccccc1)NC(=O)[C@@H](NC(=O)CNC(=O)[C@H](CCC(=O)O)NC(=O)C(C)(C)NC(=O)[C@@H](N)Cc1c[nH]cn1)[C@@H](C)O)[C@@H](C)O)C(C)C)C(C)C)C(=O)N[C@@H](C)C(=O)N[C@@H](Cc1c[nH]c2ccccc12)C(=O)N[C@@H](CC(C)C)C(=O)N[C@H](C(=O)N[C@@H](CCC(=O)O)C(=O)N[C@@H](CCCCN)C(=O)N[C@H](C(=O)N[C@@H](CCCCN)C(=O)N[C@@H](CCC(=O)O)C(=O)N[C@@H](Cc1ccccc1)C(=O)N[C@@H](Cc1ccccc1)C(N)=O)C(C)C)C(C)C) [[Aib8,Glu23,Val25,Glu34,Lys35,Val36,Lys37]-GLP-1-(7-37)-peptidyl-Glu-Phe-Phe amide]	525	372
H[Aib]EGTFTSDVSSYLEEEAVKEFIAWLVEKVKEF-NH2 [[Aib8,Glu22,Glu23,Val25,Glu34,Lys35,Val36,Lys37]-GLP-1-(7-37)-peptidyl-Glu-Phe amide]	29	12
H[Aib]EGTFTSDVSSYLEGEAVKEFIAWLVEK[Aib]K-NH2 (N-terminus assumed; SMILES CC[C@H](C)[C@H](NC(=O)[C@H](Cc1ccccc1)NC(=O)[C@H](CCC(=O)O)NC(=O)[C@H](CCCCN)NC(=O)[C@@H](NC(=O)[C@H](C)NC(=O)[C@H](CCC(=O)O)NC(=O)CNC(=O)[C@H](CCC(=O)O)NC(=O)[C@H](CC(C)C)NC(=O)[C@H](Cc1ccc(O)cc1)NC(=O)[C@H](CO)NC(=O)[C@H](CO)NC(=O)[C@@H](NC(=O)[C@H](CC(=O)O)NC(=O)[C@H](CO)NC(=O)[C@@H](NC(=O)[C@H](Cc1ccccc1)NC(=O)[C@@H](NC(=O)CNC(=O)[C@H](CCC(=O)O)NC(=O)C(C)(C)NC(=O)[C@@H](N)Cc1c[nH]cn1)[C@@H](C)O)[C@@H](C)O)C(C)C)C(C)C)C(=O)N[C@@H](C)C(=O)N[C@@H](Cc1c[nH]c2ccccc12)C(=O)N[C@@H](CC(C)C)C(=O)N[C@H](C(=O)N[C@@H](CCC(=O)O)C(=O)N[C@@H](CCCCN)C(=O)NC(C)(C)C(=O)N[C@@H](CCCCN)C(N)=O)C(C)C) [[Aib8,Glu23,Val25,Glu34,Lys35,Aib36,Lys37]-GLP-1-(7-37)-peptide amide]	15	4
H-HAEGTFTSDVSSYLEGQAAKEFIAWLVEKVGEFLEK [[Glu34,Lys35,Val36]-GLP-1-(7-37)-peptidyl-Glu-Phe-Leu-Glu-Lys]	41	13
HAEGTFTSDVSSYLEEEAVKEFIAWLVEKVKEFL-NH2 [[Glu22,Glu23,Val25,Glu34,Lys35,Val36,Lys37]-GLP-1-(7-37)-peptidyl-Glu-Phe-Leu amide]	299	114
